Experimental data as given in publication PMC5643538, “Direct visualization of critical hydrogen atoms in a pyridoxal 5′-phosphate enzyme” (Nature Communications, 2017).

Target: the molecule itself
Assay: crystal structure; joint neutron (2.2 Å) and X-ray (2.0 Å) structure at room temperature, pH 7.5, crystal soaked with 300 mM alpha-methyl-DL-aspartate; homodimer in one asymmetric unit

B1: recombinant porcine cytosolic aspartate aminotransferase (enzyme)
chain: MAPPSVFAEVPQAQPVLVFKLIADFREDPDPRKVNLGVGAYRTDDCQPWVLPVVRKVEQRIANDSSLNHEYLPILGLAEFRTCASRLALGDDSPALQEKRVGGVQSLGGTGALRIGAEFLARWYNGTNNKDTPVYVSSPTWENHNGVFTTAGFKDIRSYRYWDTEKRGLDLQGFLSDLENAPEFSIFVLHACAHNPTGTDPTPEQWKQIASVMKRRFLFPFFDSAYQGFASGNLEKDAWAIRYFVSEGFELFCAQSFSKNFGLYNERVGNLTVVAKEPDSILRVLSQMEKIVRVTWSNPPAQGARIVARTLSDPELFHEWTGNVKTMADRILSMRSELRARLEALKTPGTWNHITDQIGMFSFTGLNPKQVEYLINEKHIYLLPSGRINMCGLTTKNLDYVATSIHEAVTKIQ
modifications: pyridoxal 5'-phosphate covalently linked to K258 (internal aldimine; chain B at pH 7.5, both chains at pH 4.0); in chain A at pH 7.5 PLP is linked to alpha-methylaspartate (external aldimine) and K258 is free; protein deuterated
notes: aspartate aminotransferase, cytosolic, pig; the construct and its tag are not described here; also called AAT; source: E. coli T7 Express LacIQ, deuterated (minimal medium with 100% D2O), purified (Ni-NTA)
B1 was tested, and the “stoichiometry N” value was 2.
